{
  "source": "patent US20250051458A1",
  "about": "“Methods for Treating Neurodegeneration Targeting IGF1/IGF1R” (The Schepens Eye Research Institute, Inc., priority 2021, published 2025)",
  "molecules": {"B1": {"name": "IGFBPL1: insulin-like growth factor binding protein like protein 1; recombinant protein (R&D system, 4130-BL) (protein)", "chain": "LGLRDAGRRHPECSPCQQDRCPAPSPCPAPWISARDECGCCARCLGAEGASCGGPVGSRCGPGLVCASRASGTAPEGTGLCVCAQRGAVCGSDGRSYSSICALRLRARHAPRAHHGHLHKARDGPCEFAPVVLMPPRDIHNVTGTQVFLSCEVKAVPTPVITWKKVKHSPEGTEGLEELPGDHVNIAVQVRGGPSDHETTSWILINPLRKEDEGVYHCHAANAIGEAQSHGTVTVLDLNRYKSLYSSVPGDLL"}},
  "key": {"retinal microglia": {"test_system": "retinal microglia", "assay": "Proteome profiler mouse cytokine array on supernatants of LPS-treated retinal microglial cultures", "format": "cell-based", "conditions": "IGFBPL1 400 ng/ml added 6 hr after LPS 1 μg/ml; total 48 hours", "description": "Retinal microglia isolation started from dissecting retinas out from CX3CR1/GFP mice. The single cell suspension was obtained followed by papain digestion (20 units; Worthington, Lk003150). Tap every 3-5 mins until completely digested and then add equal volume of inhibitor to neutralize the reaction. Then the supernatants were removed by centrifuge at 300 g for 8 mins. Resuspend retinal cell pellets from CX3CR1/GFP mice into cell staining buffer (BioLegend, 420201) with pacific blue anti-mouse CD11b primary antibody (Biolegend, 101224). […]\nAs described above, microglial cells were sorted from CX3CR1/GFP mice as described above. […] The array membranes were imaged with iBright CL1500 imaging system (ThermoFisher Scientific, USA) and the results were analyzed using ImageJ software.\nTo investigate if IGFBPL1 directly mediates microglial function, we studied gene profiling changes in isolated microglial cultures treated by IGFBPL1. Retinal microglia were purified from mice expressing green fluorescence protein (GFP) driven under a microglial specific promoter Cx3cr1 (Cx3cr1-Gfp) using fluorescence-activated cell sorting (FACS)^12. […] This effects of IGFBPL1 on suppressing microglial activation were verified by cytokine arrays, which measured 36 mouse pro-inflammatory cytokines, chemokines from supernatants of microglial cultures. […]"}, "DBA/2J mice": {"test_system": "DBA/2J mice", "assay": "DBA/2J chronic glaucoma mouse model, monthly intravitreal administration", "format": "in vivo", "conditions": "10 m-old DBA/2J mice", "description": "Adult (10-12 weeks old) male and female C57BL/6J (B6) (The Jackson Laboratory, 000664), Cx3cr1^GFP (The Jackson Laboratory, 005582), DBA/2J mice (The Jackson Laboratory, 000671) Igf1r^(lax) inducible knockout mice (The Jackson Laboratory, 012251) as well as Cx3cr1^tm2.1(cre/ERT2) mice were obtained from the Jackson Laboratory. Igf1r^(lax) mice were crossed with Cx3cr1^tm2.1(cre/ERT2) mice to generated Igf-1r specific knock out on microglia after 3 consecutive days injection of 100 mg/kg tamoxifen to mice. IGFBPL1 deficiency mice at a C57BL/6J genetic background (Knockout Mouse Project Repository, University of California at Davis) were used in following experiments. Mice of both genders were randomized into control and experimental groups. All experimental procedures and use of animals were approved and monitored by the Institute's Animal Care Committee and conform to the standards of the National Institute of Health and the Association for Research in Vision and Ophthalmology.\nAdult mice were anesthetized by i.p. injection of ketamine (120 mg/kg)/xylazine (20 mg/kg) mixture using 25 G needle. […] Mice will be placed on a warm pad and monitored every 15 minutes until awake and fully sternal.\nThe adult mice were dark adapted in a dark adaptation chamber overnight before conducting ERG. […] The pSTR was measured from the baseline to the peak of the positive deflection. […]"}},
  "data": [
    {"molecule": "B1", "values": [
      {"measurement": "Reversal of LPS-induced inflammatory cytokines (cytokine array, 36 cytokines/chemokines)", "setting": "retinal microglia", "value": "completely reverted the LPS-induced inflammatory cytokines to the control levels"},
      {"measurement": "Survived axon in optic nerve", "setting": "DBA/2J mice; versus vehicle-treated group", "value": "significantly preserved"},
      {"measurement": "RGC density and pSTR amplitude", "setting": "DBA/2J mice; after four monthly doses", "value": "effectively protect RGCs and functions"}
    ]}
  ]
}
